Assay results from patent publication US20170096461A1 (IMMATICS BIOTECHNOLOGIES, published 2017).

Target: T1, HLA-A*02:01 (peptide-receptive MHC class I monomer after UV-ligand exchange) (human)
T1 construct: Monomers made with a UV-sensitive peptide that is cleaved by UV and exchanged for the test peptide; captured on streptavidin plates; also called MHC molecules
Assay: UV-ligand exchange + anti-b2m ELISA; exchange yield grade: + >=10%, ++ >=20%, +++ >=50, ++++ >=75%
Excerpt: Candidate peptides for T cell based therapies according to the present invention were further tested for their MHC binding capacity (affinity). The individual peptide-MHC complexes were produced by UV-ligand exchange, where a UV-sensitive peptide is cleaved upon UV-irradiation, and exchanged with the peptide of interest as analyzed. Only peptide candidates that can effectively bind and stabilize the peptide-receptive MHC molecules prevent dissociation of the MHC complexes. To determine the yield of the exchange reaction, an ELISA was performed based on the detection of the light chain (β2m) of stabilized MHC complexes. The assay was performed as generally described in Rodenko et al. (Rodenko et al., 2006).
96 well MAXISorp plates (NUNC) were coated over night with 2 ug/ml streptavidin in PBS at room temperature, washed 4× and blocked for 1 h at 37° C. in 2% BSA containing blocking buffer. Refolded HLA-A*02:01/MLA-001 monomers served as standards, covering the range of 15-500 ng/ml. Peptide-MHC monomers of the UV-exchange reaction were diluted 100 fold in blocking buffer. Samples were incubated for 1 h at 37° C., washed four times, incubated with 2 ug/ml HRP conjugated anti-β2m for 1 h at 37° C., washed again and detected with TMB solution that is stopped with […]. Absorption was measured at 450 nm. Candidate peptides that show a high exchange yield (preferably higher than 50%, most preferred higher than 75%) are generally preferred for a generation and production of antibodies or fragments thereof, and/or T cell receptors or fragments thereof, as they show sufficient avidity to the MHC molecules and prevent dissociation of the MHC complexes.

Binder | peptide exchange yield
YMLEHVITL [peptide YMLEHVITL (SEQ ID NO: 121)] | 50 to 75%
SLFYNELHYV [peptide SLFYNELHYV (SEQ ID NO: 37)] | 50 to 75%
SLQSLIISV [peptide SLQSLIISV (SEQ ID NO: 5)] | ≥ 75%
VILDLPLVI [peptide VILDLPLVI (SEQ ID NO: 16)] | 50 to 75%
ILASFMLTGV [peptide ILASFMLTGV (SEQ ID NO: 52)] | ≥ 75%
KMPDDVWLV [peptide KMPDDVWLV (SEQ ID NO: 106)] | ≥ 75%
VLAEIDPKQLV [peptide VLAEIDPKQLV (SEQ ID NO: 3)] | 50 to 75%
SLFERLVVL [peptide SLFERLVVL (SEQ ID NO: 109)] | ≥ 75%
SLIGLDLSSV [peptide SLIGLDLSSV (SEQ ID NO: 48)] | 50 to 75%
VMFNFPDQATV [peptide VMFNFPDQATV (SEQ ID NO: 2)] | 50 to 75%
SMMPDELLTSL [peptide SMMPDELLTSL (SEQ ID NO: 122)] | 50 to 75%
FMGDVFINV [peptide FMGDVFINV (SEQ ID NO: 35)] | ≥ 75%
LLSEEHITL [peptide LLSEEHITL (SEQ ID NO: 53)] | ≥ 75%
KAYQELLATV [peptide KAYQELLATV (SEQ ID NO: 41)] | 50 to 75%
FLTAFLVQI [peptide FLTAFLVQI (SEQ ID NO: 13)] | 50 to 75%
LLPEKSWEI [peptide LLPEKSWEI (SEQ ID NO: 22)] | 50 to 75%
SLLTAISEV [peptide SLLTAISEV (SEQ ID NO: 15)] | 50 to 75%
GLLDPGMLVNI [peptide GLLDPGMLVNI (SEQ ID NO: 4)] | 50 to 75%
LLSEPSLLRTV [peptide LLSEPSLLRTV (SEQ ID NO: 125)] | 50 to 75%

Binder | peptide exchange yield
YQIDTVINL [peptide YQIDTVINL (SEQ ID NO: 23)] | 50 to 75%
FLLDSAPLNV [peptide FLLDSAPLNV (SEQ ID NO: 117)] | ≥ 75%
GLLEDERALQL [peptide GLLEDERALQL (SEQ ID NO: 42)] | 50 to 75%
KLPSFLANV [peptide KLPSFLANV (SEQ ID NO: 118)] | 50 to 75%
YLWSEVFSM [peptide YLWSEVFSM (SEQ ID NO: 43)] | 50 to 75%
SLDIITITV [peptide SLDIITITV (SEQ ID NO: 27)] | ≥ 75%
ALGEISVSV [peptide ALGEISVSV (SEQ ID NO: 18)] | 50 to 75%
ALLEPGGVLTI [peptide ALLEPGGVLTI (SEQ ID NO: 114)] | 50 to 75%
VLLTTAVEV [peptide VLLTTAVEV (SEQ ID NO: 19)] | 50 to 75%
SMYDKVLML [peptide SMYDKVLML (SEQ ID NO: 105)] | ≥ 75%
FLPEAPAEL [peptide FLPEAPAEL (SEQ ID NO: 111)] | 50 to 75%
KLDKNPNQV [peptide KLDKNPNQV (SEQ ID NO: 123)] | 50 to 75%
ALWVAVPKA [peptide ALWVAVPKA (SEQ ID NO: 46)] | 50 to 75%
ALLVRLQEV [peptide ALLVRLQEV (SEQ ID NO: 116)] | ≥ 75%
ILIETKLVL [peptide ILIETKLVL (SEQ ID NO: 14)] | 50 to 75%
ALTSLELEL [peptide ALTSLELEL (SEQ ID NO: 32)] | 50 to 75%
SLSGEIILHSV [peptide SLSGEIILHSV (SEQ ID NO: 45)] | 20 to 50%
SLITDLQTI [peptide SLITDLQTI (SEQ ID NO: 124)] | 50 to 75%
TMEEMIFEV [peptide TMEEMIFEV (SEQ ID NO: 21)] | 50 to 75%

The remaining lines, values ahead:

peptide exchange yield | Binder
≥ 75% | KMLDEAVFQV [peptide KMLDEAVFQV (SEQ ID NO: 26)]
50 to 75% | SLAADIPRL [peptide SLAADIPRL (SEQ ID NO: 120)]
50 to 75% | GLLEALLKI [peptide GLLEALLKI (SEQ ID NO: 47)]
50 to 75% | FLLSQIVAL [peptide FLLSQIVAL (SEQ ID NO: 50)]
50 to 75% | LLLPGVIKTV [peptide LLLPGVIKTV (SEQ ID NO: 112)]
50 to 75% | SLMLVTVEL [peptide SLMLVTVEL (SEQ ID NO: 17)]
50 to 75% | ALLPSDCLQEA [peptide ALLPSDCLQEA (SEQ ID NO: 115)]
≥ 75% | GLSETILAV [peptide GLSETILAV (SEQ ID NO: 25)]
50 to 75% | MLDEILLQL [peptide MLDEILLQL (SEQ ID NO: 20)]
50 to 75% | AMLEEVNYI [peptide AMLEEVNYI (SEQ ID NO: 1)]
50 to 75% | RMDGAVTSV [peptide RMDGAVTSV (SEQ ID NO: 36)]
≥ 75% | AMYGTKLETI [peptide AMYGTKLETI (SEQ ID NO: 107)]
50 to 75% | GLTETGLYRI [peptide GLTETGLYRI (SEQ ID NO: 110)]
50 to 75% | MLFEGLDLVSA [peptide MLFEGLDLVSA (SEQ ID NO: 12)]
50 to 75% | GLDPTQFRV [peptide GLDPTQFRV (SEQ ID NO: 39)]
≥ 75% | HLFDIILTSV [peptide HLFDIILTSV (SEQ ID NO: 54)]
50 to 75% | GLLEVQVEV [peptide GLLEVQVEV (SEQ ID NO: 40)]
≥ 75% | RLLQDPVGV [peptide RLLQDPVGV (SEQ ID NO: 31)]
50 to 75% | ILDEAGVKYFL [peptide ILDEAGVKYFL (SEQ ID NO: 51)]
50 to 75% | FLMEEVHMI [peptide FLMEEVHMI (SEQ ID NO: 24)]
≥ 75% | GLISSLNEI [peptide GLISSLNEI (SEQ ID NO: 38)]
≥ 75% | ILLDDQFQPKL [peptide ILLDDQFQPKL (SEQ ID NO: 108)]
50 to 75% | LVFEGIMEV [peptide LVFEGIMEV (SEQ ID NO: 34)]
50 to 75% | KMLGLTVSL [peptide KMLGLTVSL (SEQ ID NO: 30)]
≥ 75% | ALIVGIPSV [peptide ALIVGIPSV (SEQ ID NO: 44)]
20 to 50% | RLALNTPKV [peptide RLALNTPKV (SEQ ID NO: 49)]
≥ 75% | ILVSQLEQL [peptide ILVSQLEQL (SEQ ID NO: 28)]
10 to 20% | AAASLIRLV [peptide AAASLIRLV (SEQ ID NO: 126)]
